The text below walks through data of paper PMC9167820, “An experimental study of the effects of SNPs in the TATA boxes of the GRIN1, ASCL3 and NOS1 genes on interactions with the TATA-binding protein”.

Series [1] deals with TATA-binding protein (TBP) (Homo sapiens) (UniProt P20226). In words: EMSA (kinetic, kd/ka). Particulars: 20 mM HEPES-KOH pH 7.6, 5 mM MgCl2, 70 mM KCl, 1 mM DTT, 100 ug/ml BSA, 0.01% NP-40, 5% 'XYZ' (so in the source), 25 C; TBP 0.4 nM; gel 5% PAGE Tris-glycine pH 8.3 …. On the technique in general: In EMSA bound probe runs differently from free probe, usually more slowly.
Sequence of TATA-binding protein (TBP) (Homo sapiens) (P20226 whole entry): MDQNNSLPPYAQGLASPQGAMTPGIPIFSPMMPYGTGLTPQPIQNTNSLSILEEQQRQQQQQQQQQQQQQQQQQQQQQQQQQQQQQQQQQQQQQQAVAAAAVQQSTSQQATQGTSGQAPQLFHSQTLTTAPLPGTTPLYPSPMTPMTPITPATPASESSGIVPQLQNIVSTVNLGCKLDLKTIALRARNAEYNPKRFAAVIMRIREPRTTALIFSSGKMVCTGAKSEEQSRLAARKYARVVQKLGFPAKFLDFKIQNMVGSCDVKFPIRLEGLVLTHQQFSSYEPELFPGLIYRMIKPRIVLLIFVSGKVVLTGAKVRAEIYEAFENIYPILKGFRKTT
In series [2] the target is TATA-binding protein (TBP) (Homo sapiens, UniProt P20226 1-339). In words: EMSA (kinetic, kd/ka); 20 mM HEPES-KOH pH 7.6, 5 mM MgCl2, 70 mM KCl, 1 mM DTT, 100 ug/ml BSA, 0.01% NP-40, 5% 'XYZ' (so in the source), 25 C; TBP 0.4 nM; gel 5% PAGE Tris-glycine pH 8.3, 10 C. The note with it: protein: recombinant; label: 32P; blunt.
Sequence of TATA-binding protein (TBP) (P20226 whole entry): as above

As for “TCGAAAAATAAAACAAAATAAAACAT (double strand) [ASCL3 -45T>C (rs1049743008)]”, the Kd in series [1] was found to be 17 nM.

B1: ASCL3 WT (dsDNA)
DNA 1: TCGAAAAATAAAATAAAATAAAACAT
DNA 2: ATGTTTTATTTTATTTTATTTTTCGA
Take B1: in series [2], the Kd is 12 ± 5 nM.

B2: NOS1 WT (dsDNA)
DNA 1: TGTTTCCTGATAGAAAAAAAAAATGG
DNA 2: CCATTTTTTTTTTCTATCAGGAAACA
As for B2, the dissociation constant (Kd) in series [2] worked out at 70 ± 20 nM.

B3: GRIN1 -34G>A (rs1402667001) (dsDNA)
DNA 1: TGGAGGAGGACAAAGACAGGGTGGTG
DNA 2: CACCACCCTGTCTTTGTCCTCCTCCA
Turning to B3, the Kd in series [2] worked out at 200 ± 50 nM.

B4: NOS1 -27G>A (rs1195040887) (dsDNA)
DNA 1: TGTTTCCTGATAAAAAAAAAAAATGG
DNA 2: CCATTTTTTTTTTTTATCAGGAAACA
B4: the Kd in series [2] turned out to be 59 ± 9 nM.

B5: GRIN1 WT (dsDNA)
DNA 1: TGGAGGGGGACAAAGACAGGGTGGTG
DNA 2: CACCACCCTGTCTTTGTCCCCCTCCA
On to B5, for which, in series [2], the Kd was determined as 320 ± 50 nM.

Usually Kd stands for the free concentration of one partner at which half of the binding sites on the other are occupied at equilibrium, for simple one-to-one binding.
